Assay results taken from the supplement of paper PMC12042874.
± gives the uncertainty stated by the source.

Assay: amyloid nucleation score (Sup35N fusion, yeast selection) (log enrichment); library NNK1; higher = more nucleation; inactive = no reads after selection
In short: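 DiMSum was used to calculate nucleation scores as log enrichment of output over input reads, centred on the mode score of non-aggregating sequences. Sequences with fewer than 100 input reads were not scored. Input and output came from Illumina sequencing of plasmid inserts in psi-negative yeast expressing peptides of 20 random codons fused to Sup35N, induced 24 hours with 100 μM copper sulfate and then grown 7 days at 30°C on medium lacking adenine and uracil.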

| Substance | amyloid nucleation score |
| --- | --- |
| STRYRPLNWYLTKPPVRFKM | -0.037 ± 0.56 |
| STSATPYFSFRKIFMASAAS | -0.029 ± 0.57 |
| STVAGRWNYCSVTLLCVGFF | 1.45 ± 0.31 |
| STVGPMWVWTTTLAKNAIPK | 0.833 ± 0.57 |
| SVAIASLFFLSFNFVDIRLL | 0.832 ± 0.15 |
| SVARCASPMQSLSLRGRPEG | inactive |
| SVCMLPIDGMGEEVRVFPGV | -0.641 ± 0.62 |
| SVCVCLTIGCDFSIESVRCN | 2.64 ± 0.32 |
| SVDGL | -0.763 ± 0.2 |
| SVDLFSCRRIRLTLLEVFVT | -0.028 ± 0.41 |
| SVDLVMEYSCDGNTLDFRSL | 0.157 ± 1.4 |
| SVHSLMRDRISVPPRIVKNP | -0.008 ± 0.61 |
| SVIVMVCVGL | 1.78 ± 0.13 |
| SVLDFNNYMEIVAQVKGEDP | inactive |
| SVLNNLAAPDKARLRPCNWV | 0.379 ± 0.54 |
| SVNLGGHAGCCGCWAYGGFR | 0.851 ± 0.37 |
| SVNWRYRALFDVRPAPLASQ | -1.74 ± 2.4 |
| SVPRSGKALLLSMMQLGYDS | 0.09 ± 0.39 |
| SVRVPEHGRRWVSKGVG | -0.785 ± 1.1 |
| SVSILP | -0.34 ± 0.53 |
| SVSYRDCVVKILK | 4 ± 0.074 |
| SVTERCKLQSHHDMVGGM | 3.37 ± 0.13 |
| SVWLANCYGKYMGVVCYSKV | 0.537 ± 0.32 |
| SWCFN | 1.34 ± 0.59 |
| SWCHVKIVSYRVSEVR | 0.228 ± 0.32 |

| Substance | amyloid nucleation score |
| --- | --- |
| SWGFSMLRMEEWRMPVLFYS | -0.446 ± 0.58 |
| SWNNLIVVRSKVDGCAVSAG | 0.504 ± 0.73 |
| SWPLWEVMPRWGARDRGWVG | 0.553 ± 0.93 |
| SWPMTIQYGDSIWNWKMSVM | 0.388 ± 0.58 |
| SWPSPGVRQEQNCWCTRTFV | inactive |
| SWRSSTCSALVQGQYKA | -0.051 ± 0.32 |
| SWRVCVMFDTL | -0.987 ± 1.1 |
| SWSITPNKKFDKTVSFQYHD | inactive |
| SWVNRPYWSPGDTTVWYGC | 1.06 ± 0.52 |
| SYESSLNGRISFRNGERLLC | 0.115 ± 0.42 |
| SYFGYNVIMEIHTI | -0.122 ± 0.31 |
| SYFRREDCFVFKVITLFIMS | -0.675 ± 0.46 |
| SYGSVCNDNQSNRRYVHIHM | 2.89 ± 0.22 |
| SYKLVRTLNG | inactive |
| SYLGSAAIYVCLAGRPSGQR | -0.725 ± 1.2 |
| SYLHMFTMFV | -0.654 ± 0.52 |
| SYLQGELTDDSMTSFFKGM | -1.3 ± 1.4 |
| SYLYTVNLFDFYCCRLRGST | 3.99 ± 0.1 |
| SYMNGKWMSMWVRLWGCLAF | 0.004 ± 0.48 |
| SYMSLAFIS | 0.004 ± 0.69 |
| SYNQLDKCR | inactive |
| SYSCSVSRKEFSIGVGEHEG | -0.44 ± 0.5 |
| SYSYIRLDNFSMFIYFADCS | 3.92 ± 0.066 |
| SYSYRLQPFIAMLLGSFL | -1.04 ± 2.7 |
| SYWKNTVSCYVFFGMSRSRT | -0.634 ± 1.4 |

| Substance | amyloid nucleation score |
| --- | --- |
| SYYHRFSRIGMRSLGQEQCY | inactive |
| SYYNSVWTRYECAVVWT | 0.413 ± 1.1 |
| SYYYHV | 1.17 ± 0.66 |
| TAALFLAMLGDYVVSNMWTT | inactive |
| TAGCICPCKQAVYGICQSRT | -0.447 ± 0.71 |
| TAGFPLCYNCYEKP | -0.625 ± 0.35 |
| TAKRLAT | 0.21 ± 0.8 |
| TATDPLLSYGAHL | -0.354 ± 0.31 |
| TAVIKLSCLSLFMNSIMLVY | 2.59 ± 0.12 |
| TAYIIKHSFWLGPFNLGSLM | 3.88 ± 0.12 |
| TAYSNG | -0.814 ± 0.74 |
| TAYVLLWTRTVFVFPEVHTF | 0.887 ± 0.43 |
| TCCRRVLSMEQQDTLVYWQY | -0.585 ± 1.7 |
| TCHLIL | -0.872 ± 0.34 |
| TCKTHHRGTPGATVFPKDTA | 0.17 ± 0.45 |
| TCNHYNRVVFQSNVIYLIHV | 2.77 ± 0.15 |
| TCNRHSDTEGLC | -1.13 ± 0.66 |
| TCRCTKLTSAYMLRVWSVQF | -0.332 ± 0.55 |
| TCSSLRSLLWSCVVRALLWT | -0.528 ± 1.2 |
| TDAPHTCWLFFLYSVSFLIV | -0.204 ± 0.43 |
| TDIIFIVRYSVVLVSLCSKC | -0.343 ± 0.69 |
| TDLNLVMKKGSYVGCSSSCV | -0.605 ± 0.24 |
| TDQCGWGTVRRSAETSLGQL | 0.77 ± 0.78 |
| TDSSREGVNLHKLLFTFAMR | 0.137 ± 1.1 |
| TDYRFTRVWRRGVARS | 0.707 ± 0.55 |

| Substance | amyloid nucleation score |
| --- | --- |
| TEEFYPARSCMK | -1.87 ± 1.3 |
| TEGPSN | inactive |
| TESPRCRVPGVELPD | -0.136 ± 0.67 |
| TFCCIVSFF | 7.199 ± 0.049 |
| TFFYKDSDRDSCMGMLLIVC | 0.295 ± 0.44 |
| TFGSETESMLNTKYSSGCVG | 0.067 ± 0.55 |
| TFGVVEFSRNRGMSLCETLN | 0.386 ± 0.42 |
| TFKYFDSLTLPDLYIVVHGS | 0.037 ± 0.2 |
| TFLQFTRYFWLTTYNKGSS | inactive |
| TFLYKKLTFEVVWGCLIASE | -0.041 ± 0.84 |
| TFNLVLGLSWNPDMFGDKGV | 1.2 ± 0.41 |
| TFSGFYGVYYNQILVGSLIQ | inactive |
| TFTCVITSGCDLYPLLGHIS | 0.9 ± 0.4 |
| TFVLRCFSRCDGAITFQTRP | 1.14 ± 0.2 |
| TFWTLVQQATVKHMLYGTFL | -0.663 ± 1.9 |
| TFWVGEKSRVGSVPFQYLRL | -0.152 ± 0.31 |
| TFYEHMVCGRHQSQAVWLVK | 0.169 ± 0.6 |
| TGDLVTLGGVGL | 0.309 ± 0.42 |
| TGDVLIYWFLVTHRMTAVQV | -0.096 ± 1 |
| TGFGKKRATGWVAWGWEKLL | -0.468 ± 0.32 |
| TGKAVTSGWKNIVSSITSQR | -0.434 ± 0.58 |
| TGLPFYEEIMRTPHM | -0.766 ± 0.5 |
| TGMWPFNRRCITIRTVSRNL | 0.467 ± 0.93 |
| TGPVLTPKSCYFGHINSSCF | -0.009 ± 0.29 |
| TGQLDV | 1.75 ± 0.58 |

| Substance | amyloid nucleation score |
| --- | --- |
| TGRRIVGYDCLNRSCMYICV | -0.321 ± 0.25 |
| TGRRLERGMRLRHGDAEYCC | 0.408 ± 0.28 |
| TGSLG | -0.214 ± 0.31 |
| TGTHDVVVAVGYR | -0.658 ± 0.54 |
| TGYGVAVGPFVGGDF | -0.548 ± 1.5 |
| TGYLERRVGYYRVRFRCERS | 0.022 ± 0.6 |
| THCFFYHLGKFYMSKITLAS | -1.48 ± 2.7 |
| THDAFF | 0.642 ± 0.48 |
| THFMYIVELERGRLFGCSVR | 0.115 ± 1 |
| THLGGRRFHFSELRTRSSRG | -0.023 ± 0.49 |
| THQGWYSQNEHERRWIVHSF | 0.028 ± 0.58 |
| THTYGGDG | -0.096 ± 0.74 |
| TICNMSRWYDMKNYGEKMEV | 1.21 ± 0.6 |
| TIDGSPIGMTTWPVPSFKFS | 0.742 ± 0.56 |
| TIFGHVRGSYETKWMWAPWR | 2.98 ± 0.12 |
| TIFLSF | -0.284 ± 0.27 |
| TIHFRSDQHLSNIWRGFWQY | inactive |
| TILGVITKIVQTLLWMPWVA | -1.37 ± 0.9 |
| TINWEPRFRVLHSPIYRGCY | inactive |
| TITDNSPNKTMIEVEEIRL | 0.109 ± 1.1 |
| TITHGYLRLRYCVR | -0.292 ± 0.44 |
| TKCHIQLYIALASVAGGSGF | 2.36 ± 0.29 |
| TKGAFKVEKWSLSE | -0.115 ± 0.23 |
| TKMCF | 0.105 ± 0.41 |
| TKVFGRYLVVSGRFCIIEKK | -0.371 ± 0.38 |

| Substance | amyloid nucleation score |
| --- | --- |
| TLCREEVETRLEATFCGCTN | 0.979 ± 0.84 |
| TLDWLMSIFLILVSLAFNGL | -0.14 ± 0.33 |
| TLDYVSYWGFTIWYAFMMVL | inactive |
| TLFRGMGYSWNVNKPDARKV | -0.403 ± 1.4 |
| TLGLVDERHEDWIVLDYTLG | 0.422 ± 0.53 |
| TLLMRSEGYLFYYAPSLSLV | -0.494 ± 0.44 |
| TLLPARGGKKAR | 0.256 ± 0.49 |
| TLMNHGRESLGWFD | -0.828 ± 0.66 |
| TLPDKRILLSANIMPALVCN | 0.837 ± 0.31 |
| TLQLN | -0.59 ± 0.65 |
| TLRVIAVVDTFSRVYFR | 3.58 ± 0.12 |
| TLSKVICVSPTVGMGLSSER | 0.616 ± 0.79 |
| TLSSRSYC | 0.402 ± 0.33 |
| TLVCNGQISTNLYYVKVGSS | 2.83 ± 0.12 |
| TLVSAVSCCLNAC | -0.269 ± 0.26 |
| TLWVNIG | -1.44 ± 2.7 |
| TMFIFCWKTGVCLYCNLFTS | -0.591 ± 0.4 |
| TMIDNPVYPSVFRVGHDTLV | 0.356 ± 0.3 |
| TMRSNRLFRICFCLGKKYWL | -0.562 ± 0.33 |
| TMWIAGVRNR | -0.367 ± 0.62 |
| TNFCGVNPGRIIRLWEDRSW | -0.762 ± 0.45 |
| TNFLKSFHV | -1.95 ± 1.8 |
| TNGLCFI | -0.833 ± 0.74 |
| TNGRR | -0.691 ± 1.2 |
| TNTSWVFVVCIEHKEMDQAV | 5.9 ± 0.086 |

| Substance | amyloid nucleation score |
| --- | --- |
| TNVNF | -1.24 ± 0.74 |
| TPFRDKHGGVWVV | 0.505 ± 0.56 |
| TPLFRGFIMLQPRLRCDKFA | 0.013 ± 0.31 |
| TPNQSRFPNAVMTDTVTSFS | 0.214 ± 0.81 |
| TQDIILDNSHDATHQHTRRA | -0.243 ± 1 |
| TQEVLLFPGGCYNPFAFGWS | -0.647 ± 0.75 |
| TQSSNPTLGGFQFHLWVNIF | -1.85 ± 0.95 |
| TRCIAVFIGD | 2.52 ± 0.11 |
| TRCRWLQ | 0.931 ± 0.93 |
| TRFMMRVRIVSDCDTVNFAC | -0.379 ± 0.62 |
| TRFNFMGLYNLRMVN | -0.777 ± 1.2 |
| TRIVLLVVRRGTRKG | 0.889 ± 0.48 |
| TRLHRSQYSLSQSYNRTRKM | 0.39 ± 1.2 |
| TRMLLMIL | -0.921 ± 2.4 |
| TRNVSVTAVMED | 0.938 ± 0.81 |
| TRSLPFSIS | 0.109 ± 1.4 |
| TRVASQDARTDP | -0.034 ± 0.49 |
| TRWCEWRYRSPDRYASLTGF | -0.06 ± 0.43 |
| TSAASLVERNLFLVSFFIIW | -0.376 ± 1.7 |
| TSCVLFLYTPLTGSFLAGCP | -0.46 ± 0.59 |
| TSELFYGTCGKGCPERVGGQ | -0.266 ± 1.6 |
